Data on three molecules can be found in patent US11142588B2, “Polypeptides which bind C-X-C chemokine receptor type 4 (CXCR4) and methods of treating or reducing the risk of fibrosis and cancer” (AdAlta Limited, priority 2015, dated 2021).

Like-named read-outs stand apart in the source and are kept apart here.

Assay [1] deals with Ramos tumor cells. Particulars: previous report, Kuhne et al 2013; cited from earlier work.
The next assay concerns CCL2 and CCL5 protein. The assay is described as follows: CCL2, CCL5, CXCL12 ELISA of fibroblast conditioned supernatants. Particulars: 48 hours. Type of assay: cell-based, human. The source says: Various reports indicate that CXCR4 signals in conjunction with other chemokine receptors, including CCR2.
A general note: ELISA stands for enzyme-linked immunosorbent assay.

The subject of assay [2] is Ramos tumor cells. As to the kind of experiment: Apoptosis assay (annexin V / propidium iodide flow cytometry). It counts as cell-based, human. Particulars: annexin V and propidium iodide double positive, 24 or 72 hours. The method, then: The ability of an i-body of the invention to induce apoptosis in Ramos tumor cells (a human Burkitt's lymphoma cell line) was examined in an apoptosis assay according to the methods as described in Mishra M et al (2011) J Cell Mol Med 15(11):2462-77. I-bodies were incubated with Ramos cells and examined by flow cytometry after 24 or 72 hours. The cells were stained for annexin V and propidium iodide which are classic markers for apoptosis. Cells which were double positive were assessed to have become apoptotic.
(In general: In flow cytometry, cells or beads pass a laser one at a time.)

Assay [3] is described as follows: Laser induced choroidal neovascularisation model. Type of assay: in vivo, mouse. Particulars: intravitreal, 1 μl up to 20 mg/ml. The method, then:
The laser induced choroidal neovascularisation (CNV) is a well characterised and accepted model of choroidal neovascularisation (Fletcher E L et al. (2011) Prog Mol Biol Transl Sci 100:211-286). It is also a rapid method for determining the efficacy of potential treatments that target angiogenesis and fibrosis. Briefly, up to four laser spots are applied to the posterior eye using a continuous wave photocoagulation laser ([…] diode). The laser energy is high enough to create a break in Bruch's membrane. During the following 7-14 days, growth of blood vessels from the choroid into the retina occurs, and is quantified either immuocytochemically, or using fluorescein angiography.
Mice were treated as below: • Group 1 (n=10): laser both eyes-vehicle in one eye; i-body in the other • Group 2 (n=10): Laser one eye (no i-body); other eye unlasered. • The i-body drug was injected intravitreally in 1 μl volume at a concentration up to 20 mg/ml.
The expression of genes associated with angiogenesis and fibrosis was examined. Total RNA was isolated from the retina and RPE/choroidal samples using commercial spin columns (RNeasy, Qiagen, Valencia Calif.). A PCR gene array was used to assess the expression of 84 genes involved angiogenesis or fibrosis (Qiagen). Briefly, total RNA samples from untreated, laser treated eyes and untreated fellow eyes (n=9 each group, each 25 ng) were pooled within their respective treatment groups (3 independent experiments containing 3 pooled samples), reversed transcribed (RT2 first strand, Qiagen) and then underwent pre-amplification of the cDNA target templates (RT2 pre-AMP, Qiagen). Samples were added to a commercial mastermix (RT2 SYBR green mastermix, Qiagen) and amplified for 40 cycles (ABI 7900HT, Life Technologies, Grand Island N.Y.). Three independent arrays were performed for each treatment group. The data were analysed using delata delta Ct (ΔΔCt), expressed as fold change and regulation assessed using an unpaired t-test.

Assay [4] has as its system normal and IPF lung fibroblasts. As to the kind of experiment: Wound healing invasion assay of lung fibroblasts. It counts as cell-based, human. Conditions: 130 μg/ml. The method, then: To determine the role of CXCR4 and CXCL12 in fibroblast invasion, normal and IPF lung fibroblasts were utilized in a wound healing invasion assay. ImageLock 96 well plates (Essen Bioscience) were coated with 50 μg/ml of Basement membrane extract (BME; Trevigen) for one hour at room temperature. Normal, and fibroblasts generated from lung biopsies of idiopathic pulmonary fibrosis (IPF) patients showing slow progression or rapid progression of the disease were plated (36,000 cells per well) on the BME-coated plates and incubated overnight. […] The BME was allowed to polymerize by incubating the plate at 37° C. for 15 minutes. The plates were then inserted into an IncuCyte Zoom imaging system and images were acquired every 2 hours for approximately 50 hours. Invasion was quantified using IncuCyte software (Essen Bioscience).

The subject of a further assay is CCRF-CEM cells. The assay is described as follows: Immunohistochemistry staining of tumours in spleen and liver of SCID/bg mice. Particulars: 130 μg/ml. The method, then:
Tissues were fixed in 10% neutral buffered formalin overnight and subsequently transferred into tissue cassettes and placed in 70% ethanol. The tissues were then paraffin embedded. Slides containing 4 μm sections were deparaffinized and hydrated by incubating them in two changes of xylene for five min each, followed by two changes of 100% ethanol for 3 min each, 70% ethanol for 2 min, 50% ethanol for 2 min, and distilled water for 5 min. Antigen retrieval was performed by incubating the slides in 10 mM Citric acid solution (pH 6.0) in an 80° C. oven overnight. The slides were subsequently washed in PBS and permeabilized in 10% methanol containing 0.4% H2O2 for 30 min. […] All slides were subsequently stained with biotinylated anti-His tag antibodies (Miltenyi Biotech) and developed using an HRP-DAB cell and tissue staining kit according to the manufacturer's instructions (R&D systems).

In assay [5] the test system is ACTA2, COL1A1, COL3A1 and FN1 transcripts. As to the kind of experiment: qPCR of pro-fibrotic transcripts in lung fibroblasts. It counts as cell-based, human. Particulars: 130 μg/ml, 48 hours. The method, then:
After 48 hours, RNA was extracted using Trizol reagent and reverse transcribed into cDNA using superscript II reverse transcriptase (Life technology) as previously described (Trujillo et al Sci Transl Med 2010 2; 57ra82). Complementary DNA (cDNA) was subsequently loaded into a Taqman plate and gene expression analysis were performed using predesigned primers for COL1A1, COL3A1, FN1, and aSMA. All Taqman analysis was performed using an Applied Bio system's Viia 7 instrument (Life technology). The results were then exported, normalized to 18s RNA expression and fold change analysis were calculated using Data Assist software (Life technologies).
On the technique in general: In qPCR the cycle at which signal appears reflects the starting amount.

The target of the next assay is CXCR4 (Homo sapiens, UniProt P61073). The assay is described as follows: β-arrestin BRET assay, antagonist mode with 100 nM SDF-1. Type of assay: cell-based. The arrangement: expressed in transfected cells; host or cells: HEK293FT. Particulars: various concentrations. The essentials:
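Ten concentrations of i-body with 100 nM SDF-1 were applied to transiently transfected HEK293FT cells carrying CXCR4/Rluc8 donor and β-arrestin2/Venus acceptor. Emissions at 400-475 and 520-540 nm were read at 37 °C, and the vehicle-subtracted ratio gave the BRET signal (four independent duplicate experiments).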

Assay [6] concerns the target CCR5 positive lipoparticles (Homo sapiens, UniProt P51681). As to the kind of experiment: ELISA binding to CCR5 positive lipoparticles. The text has this:
The mutant i-body clones were also examined for binding to CCR5 positive lipoparticles (FIG. 7B).

The nature of assay [7]: Binding to null lipoparticles (off-target control). The method, then: (FIGS. 2A-2C, 5A-5C, 11A-11D, 17A-17B) Kinetic binding analysis of selected i-bodies with immobilized CXCR4 lipoparticles were performed at 25° C. using Biacore T200 instrument (GE Healthcare, Uppsala, Sweden). Streptavidin immobilization was performed in 1×HBS-P+ running buffer (10 mM HEPES, 150 mM NaCl, 0.05% [v/v] Tween-20). Amine coupling kit (GE Healthcare) and the instructions therein were utilized for the attachment of Streptavidin (Sigma; diluted to 100 μg/mL in 10 mM sodium acetate buffer pH 4.5) in all four channels on the sensor chip surface simultaneously, resulting in >6,000 RU of Streptavidin being coupled (1 RU=1 pg protein/mm^2). All binding experiments involving lipoparticles were performed with 1×HBS/BSA (10 mM HEPES, 150 mM NaCl, 1 mg/mL BSA) as instrument running buffer. Biotinylated CXCR4 lipoparticles (Integral Molecular, Cat #LEV-101B; 3.6 U/mL as described in WO 2005/042695) were typically diluted 1 in 20 in the running buffer and immobilized onto a Streptavidin containing channel by injecting at […] for 1,800 sec resulting in captured response levels of greater than 2,500 RU. […] In order to determine binding kinetics, serial dilutions (three-fold) of i-bodies diluted in 1×HBS/BSA were injected over immobilized lipoparticles with the association and dissociation phases monitored for 60 sec and 600 sec, respectively. […]

CCR5 positive lipoparticles, sequence (P51681 whole entry): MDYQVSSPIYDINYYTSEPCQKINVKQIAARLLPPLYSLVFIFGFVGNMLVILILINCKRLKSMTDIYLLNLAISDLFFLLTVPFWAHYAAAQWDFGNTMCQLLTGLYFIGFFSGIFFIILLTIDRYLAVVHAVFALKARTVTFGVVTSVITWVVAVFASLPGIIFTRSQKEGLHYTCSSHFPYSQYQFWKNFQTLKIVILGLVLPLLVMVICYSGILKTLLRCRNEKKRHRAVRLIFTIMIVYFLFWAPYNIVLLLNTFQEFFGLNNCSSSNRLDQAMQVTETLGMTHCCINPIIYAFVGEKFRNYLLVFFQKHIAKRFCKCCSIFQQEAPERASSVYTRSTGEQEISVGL
CXCR4, sequence (P61073 whole entry): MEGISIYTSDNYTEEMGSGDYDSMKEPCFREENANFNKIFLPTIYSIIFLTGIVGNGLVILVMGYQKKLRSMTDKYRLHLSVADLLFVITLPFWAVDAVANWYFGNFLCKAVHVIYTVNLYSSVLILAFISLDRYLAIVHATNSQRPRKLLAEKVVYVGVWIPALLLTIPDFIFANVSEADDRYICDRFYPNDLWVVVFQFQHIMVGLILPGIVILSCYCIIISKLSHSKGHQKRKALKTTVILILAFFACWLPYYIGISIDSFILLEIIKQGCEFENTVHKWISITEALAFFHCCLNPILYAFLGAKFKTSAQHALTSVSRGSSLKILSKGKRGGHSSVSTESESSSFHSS

MDX-1338: human anti-CXCR4 mAb: the “induction of apoptosis in Ramos cells” value in the assay on Ramos tumor cells [1] was “able to induce apoptosis”.

B1: AM3-114-6H: AM3-114 with 6 His tag, containing the N-terminal sequence EAEA (protein)
chain: EAEALQVDIVPYQGEISVGESKFFLCQVAGSLSGIRISWFSPNGEKLTPNQQRISVVWNDDSSSTLTIYNANIDDAGIYKCVVWRTGGYRHRYLVLGEATVNVKIFQ
modifications: left off: small tags and cut ends
For B1, the “CCL2 protein in IPF fibroblast conditioned supernatants” value in the assay on CCL2 and CCL5 protein is “markedly increased”. For the same molecule, in the assay on Ramos tumor cells [2], the “induction of apoptosis in Ramos cells” value is listed as “strongly induce apoptosis”. Further, the “pathological angiogenesis / lesion size” value in assay [3] was “reduces pathological angiogenesis or lesion characteristics”. Besides, in assay [4], the “invasion of rapid-IPF (fast progressor) lung fibroblasts” value is “two out three” and the “invasion of slow-IPF lung fibroblasts” value is “inhibited invasion”. Moreover, the “staining of CCRF-CEM cells in spleen and liver” value in the assay on CCRF-CEM cells is listed as “stained CCRF-CEM cells”. Further, the “ACTA2, COL1A1, COL3A1 and FN1 transcript expression in slow-IPF lung fibroblasts” value in assay [5] is reported as “markedly reduced”.

B2: ADCX-272: CXCR4 binding i-body, SEQ ID NO: 14 (protein)
chain: LQVDIVPSQGEISVGESKFFLCQVAGHLEVRSISWFSPNGEKLTPNQQRISVVWNDDSSSTLTIYNANIDDAGIYKCVVEQRGRSQSYFSEATVNVKIFQ
Take B2: in the assay with CXCR4, the β-arrestin activity result is listed as “some degree of inhibition”. In [6], the “binding to CCR5 positive lipoparticles” value was “very little binding”. For the same molecule, the “binding to null lipoparticles” value in assay [7] was “very little binding”.
